Reference: patent US12329814B2, “Combination of a substance modulating tumor immune microenvironment and immunotherapy for the treatment of cancer” (Boostimmune, Inc., priority 2022, dated 2025)

T1: extracellular TCTP (Mus musculus, UniProt P63028)
T1 construct: stimulated with conditioned supernatant of SL4 cells containing antibody 55F3 or control IgG; endogenous in cells; host or cells: SL4 mouse colon carcinoma cells (conditioned supernatant), applied to mouse peritoneal exudate cells
T1 sequence (P63028 1-172): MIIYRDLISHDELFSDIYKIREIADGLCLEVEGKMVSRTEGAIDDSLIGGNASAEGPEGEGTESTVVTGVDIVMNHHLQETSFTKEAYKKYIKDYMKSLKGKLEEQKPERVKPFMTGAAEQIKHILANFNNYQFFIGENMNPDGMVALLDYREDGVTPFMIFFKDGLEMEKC


How the values were obtained:
B16F10 cells = test: B16F10 tumor treated with anti-TCTP antibody in combination with anti-PD-1 antibody; assay type: in vivo, C57BL/6 mice; settings: anti-TCTP 100 μg i.p. days 1, 4, 8, 11, 15, 18, 22 plus anti-PD-1 (BioXCell) 100 μg i.v. day 10, compared with checkpoint antibody alone, FIGS. 9A and 9B
Experimental: The influence of the combination of anti-TCTP antibodies with an anti-PD-1 antibody on tumor suppression was also studied. B16F10 (1×10^5 cells in 50 μL PBS) cells were subcutaneously inoculated into C57BL/6 mice (Day 1). An anti-PD-1 antibody (BioXCell; 100 μg in 100 μL PBS) was administered intravenously ten days after the inoculation, and anti-TCTP antibodies 55F3 and 1-2-4 (each 100 μg in 100 μL PBS) were administered intraperitoneally in the mice on days 1, 4, 8, 11, 15, 18, and 22. As a result, the effect of suppressing tumor proliferation is improved by the combined administration of an anti-TCTP antibody and a PD-1 or CTLA-4 antagonist antibody, compared with the case of single administration of a PD-1 or CTLA-4 antagonist antibody alone (FIGS. 9A and 9B).

[1] = test system: SL4 TCTP KO+hTCTP tumor cells; test: TCTP KI SL4 (TCTP KO+hTCTP) subcutaneous tumor in C57BL/6 mice treated with anti-TCTP antibodies; assay type: in vivo; settings: 100 μg intraperitoneally on days 1, 4, 8, 11, vs PBS; FIG. 7
Experimental: HEK293Ta cells (3×10^6 cells) were transfected with pCSII-EF-MCS-IRES2-Venus-hTCTP lentiviral expression vector and its helper vectors (pMDLg/p.RRE and pCMV-VSV-G-RSV-Rev). After 48 hours of the transfection, culture supernatants were collected and filtered (0.45 μm; Millipore). TCTP KO SL4 cells from Example 1 (1×10^6 cells) were infected using the supernatant. After infection, GFP-positive human TCTP-expressing TCTP KO SL4 cells (hereafter TCTP KI SL4 cells) were sorted using FACSMelody cell sorter. TCTP KI SL4 cells (2×10^5 cells/100 μL PBS), TCTP KO SL4 cells (2×10^5 cells/100 μL PBS), or parental SL4 cells (2×10^5 cells/100 μL PBS) were inoculated into C57BL/6 mice. After cell inoculation, tumor volumes were measured over time.
TCTP KI SL4 cells (TCTP KO+hTCTP; 5×10^5 cells in 100 μL PBS) from example 3 were subcutaneously inoculated into C57BL/6 mice (Day 0). Anti-TCTP (100 μg in 100 μL PBS) antibodies were administered intraperitoneally into the mice on days 1, 4, 8, and 11. As a control, 100 μL of PBS was administered. Tumor size was measured on days 3, 6, 9, and 11. As a result, the proliferation speed of SL4 TCTP KO+hTCTP tumor cells was decreased by administration of 55F3 or 1-2-4 (FIG. 7).

SL4 tumor cells = test: SL4 subcutaneous tumor in C57BL/6 mice treated with anti-TCTP antibody; assay type: in vivo; settings: 200 μg/mouse intraperitoneally every other day from Day 1, vs control IgG
Experimental: (§1) Peritoneal exudate cells (PECs) (2×10^5 cells) were stimulated with conditioned supernatant of SL4 cells containing antibody 55F3 or control IgG, and after 2 hours of stimulation, Cxcl1 mRNA levels were determined by RT-qPCR. As a result of blockade of extracellular TCTP with antibody 55F3, the expression of Cxcl1 mRNA was suppressed (FIG. 6A). Subsequently, SL4 cells were transplanted into C57BL/6 mice via subcutaneous injection, and 55F3 or control IgG (200 μg/mouse) was then intraperitoneally administered to the mice every other day, starting from Day 1 after the transplantation, and the volume of the tumor was measured. As a result, the proliferation speed of SL4 tumor cells was decreased by administration of 55F3 (FIG. 6B), and the amount of PMN-MDSCs in the TIME was decreased (FIG. 6C).

extracellular TCTP = molecular target: T1, extracellular TCTP; test: Cxcl1 mRNA in peritoneal exudate cells stimulated with SL4 conditioned supernatant (RT-qPCR); assay type: cell-based; settings: PECs stimulated 2 hours with conditioned supernatant of SL4 cells containing antibody, vs control IgG; FIG. 6A
Experimental: as §1

SL4 cells = test: SL4 tumor treated with anti-TCTP antibody in combination with anti-PD-1 antibody; assay type: in vivo, C57BL/6 mice; settings: 55F3 i.p. every day from Day 1 plus anti-PD-1 monoclonal antibody (BioLegend) day 10, compared with PD-1 antagonist antibody alone, FIG. 10
Experimental: This synergistic effect was also confirmed in the experiment using SL4 cells. SL4 cells were transplanted into C57BL/6 mice via subcutaneous injection, and thereafter, antibody 55F3 was intraperitoneally […] into the mice every day, starting from Day 1 after the transplantation. Ten days after the transplantation, an anti-PD-1 monoclonal antibody (BioLegend) was administered to the mice, and the tumor volume was then measured. As a result, it was confirmed that the effect of suppressing tumor proliferation is improved by the combined administration of an anti-TCTP antibody and a PD-1 antagonist antibody, compared with the case of single administration of a PD-1 antagonist antibody alone (FIG. 10).

MC38 tumors = test: Flow cytometry of tumor-infiltrating immune cells, MC38 tumors, anti-TCTP and anti-PD-1 antibodies; assay type: in vivo, C57BL/6 mice; settings: MC38, 15 days; 55F3 200 μg i.p. every 2 days and/or anti-PD-1 RMP1-14 10 mg/kg i.p. days 0, 3, 7, 10, 14; FIG. 11C
Experimental: (§2) Effect of the combination of anti-TCTP antibody and anti-PD-1 antibody on T cells and NK cells in the TIME was also studied. Tumor-infiltrating immune cells were collected from B16F10 and MC38 tumors treated with anti-TCTP antibody and/or anti-PD-1 antibody and were then analyzed by flow cytometry. B16F10 cells (5×10^5 cells) or MC38 cells (3×10^5 cells) were transplanted subcutaneously into C57BL/6 mice. Anti-PD-1 antibody RMP1-14 (BioXCell; 10 mg/kg) was administered intraperitoneally on days 0, 3, 7, 10, 14 after the inoculation, and anti-TCTP antibody 55F3 (200 μg in 200 μL PBS) was administered intraperitoneally in the mice every 2 days after the inoculation. After 15 days (MC38) or 12 days (B16F10) of transplantation, single cell suspensions were prepared from tumors and subjected to flow cytometry analysis.

B16F10 tumors = test: Flow cytometry of tumor-infiltrating immune cells, B16F10 tumors, anti-TCTP and anti-PD-1 antibodies; assay type: in vivo, C57BL/6 mice; settings: B16F10, 12 days; 55F3 200 μg i.p. every 2 days and/or anti-PD-1 RMP1-14 10 mg/kg i.p. days 0, 3, 7, 10, 14; FIG. 11C
Experimental: as §2

| expression of Cxcl1 mRNA (extracellular TCTP) | Molecule | effect of suppressing tumor proliferation, combined administration with anti-PD-1 antibody (B16F10 cells) | proliferation speed of SL4 TCTP KO+hTCTP tumor cells (tumor size) [1] | proliferation speed of SL4 tumor cells (tumor volume) (SL4 tumor cells; FIG. 6B) | amount of PMN-MDSCs in the TIME (SL4 tumor cells; SL4 tumor, FIG. 6C) | effect of suppressing tumor proliferation, combined administration with anti-PD-1 antibody (SL4 cells) | CD8+ cells in tumor (abundance ratio) (MC38 tumors) | CD8+ cells in tumor (abundance ratio) (B16F10 tumors) |
| --- | --- | --- | --- | --- | --- | --- | --- | --- |
| – | 1-2-4: Human monoclonal anti-TCTP antibody from CAMOUSE; VH SEQ ID NO: 28, VL SEQ ID NO: 32; CDRs SEQ ID NO: 19-24 (antibody, V domains shown, Variable region of antibody) VH: MDWTWRILFLVAAATGAHSQVQLVQSGAEVKKPGASVKVSCKASGYTFFSYAMHWVRQAPGQRLEWMGWINAGNGNTKYSQKFQDRVTITRDTSATTAYMELSSLRSEDTAVYYCASWVFDYWGQGTPVTVSS VL: MRLLAQLLGLLMLWVPGSSGDIVMTQTPLSSLVTLGQPASISCRSSQSLVHRDGNTYLSWLQQRPGQPPRLLIYKISNRFFGVPDRFSGSGAGTDFTLKISRVEAEDVGVYYCMQATQFPHTFGQGTKLEIK | improved | decreased | – | – | – | – | – |
| suppressed | 55F3: Mouse monoclonal anti-TCTP antibody; VH SEQ ID NO: 25, VL SEQ ID NO: 29; CDRs SEQ ID NO: 1-6 (antibody, listed as Mus musculus) VH: MRVLILLWLFTAFPGILSDVQLQESGPGLVKPSQSLSLTCTATGYSIASDYAWNWIRQFPGNKLEWMGYINYSGSTGYNPSLKSRISITRDTSKNQFFLQLNSVTTEDTATYYCARFEAGYWGQGTTLTVSSAKTTPPSVYPLAPGSAAQTNSMVTLGCLVKGYFPEPVT VL: MDMRTPAQFLGILLLWFPGIKCDIKMTQSPSSMSASLGERVTITCKASQDINRYLSWFQQKPGKSPKTLIYRANRLVDGVPSRFSGSGSGQDYSLTISSLEYGDMGIYYCLQYNEFPLTFGAGTKLELKRADAAPTVSIFPPSSEQLTSGGASVVCFLN | improved | decreased | decreased | decreased | improved | increased | increased |
